Source: patent US20150299258A1 (UNIVERSITY OF TOKYO, published 2015)
Positions of bridges follow the written chain, without caps; N, C: chain ends.

What was measured:
[1] = target: VEGFR2 expressed by HUVEC (human, UniProt P35968 20-1356); experiment: cell-based or functional assay
[2] = target: T1, fusion protein of human VEGFR2 and Fc (human, UniProt P35968 20-764, limits assumed); experiment: BLI (ForteBio), VEGFR2-Fc on anti-human IgG capture biosensors, peptide in solution, 30 C
T1 construct: not shown: Fc
T1 sequence (P35968 20-764 limits assumed): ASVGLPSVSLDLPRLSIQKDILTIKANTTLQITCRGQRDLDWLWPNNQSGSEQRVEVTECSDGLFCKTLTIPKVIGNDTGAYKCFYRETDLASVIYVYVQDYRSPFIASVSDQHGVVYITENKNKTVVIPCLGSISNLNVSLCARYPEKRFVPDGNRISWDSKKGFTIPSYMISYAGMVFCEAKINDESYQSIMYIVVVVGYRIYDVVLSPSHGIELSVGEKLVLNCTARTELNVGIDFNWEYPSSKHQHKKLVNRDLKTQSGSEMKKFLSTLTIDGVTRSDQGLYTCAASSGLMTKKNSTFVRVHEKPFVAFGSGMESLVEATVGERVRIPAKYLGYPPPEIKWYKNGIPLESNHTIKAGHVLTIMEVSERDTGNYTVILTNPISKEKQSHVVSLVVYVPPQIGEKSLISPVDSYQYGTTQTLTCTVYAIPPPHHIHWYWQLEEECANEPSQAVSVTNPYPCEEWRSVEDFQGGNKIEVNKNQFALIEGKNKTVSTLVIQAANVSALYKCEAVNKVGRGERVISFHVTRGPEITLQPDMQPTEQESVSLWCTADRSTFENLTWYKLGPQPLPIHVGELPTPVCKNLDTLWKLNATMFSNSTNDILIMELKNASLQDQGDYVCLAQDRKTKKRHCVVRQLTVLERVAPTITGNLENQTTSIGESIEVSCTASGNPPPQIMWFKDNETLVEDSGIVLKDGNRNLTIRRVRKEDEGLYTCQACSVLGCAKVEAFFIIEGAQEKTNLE
Experimental: A dissociation constant of binding between the cyclic peptide L1 or BL1 thus synthesized and human VEGFR2 or mouse VEGFR2 was determined by BLI method (ForteBio). A fusion protein of VEGFR2 and Fc was immobilized onto Anti-human IgG Capture Biosensors and the cyclic peptide L1 or BL1 varied in concentration was analyzed. The temperature was set at 30° C.

Chain of VEGFR2 expressed by HUVEC (P35968 20-1356): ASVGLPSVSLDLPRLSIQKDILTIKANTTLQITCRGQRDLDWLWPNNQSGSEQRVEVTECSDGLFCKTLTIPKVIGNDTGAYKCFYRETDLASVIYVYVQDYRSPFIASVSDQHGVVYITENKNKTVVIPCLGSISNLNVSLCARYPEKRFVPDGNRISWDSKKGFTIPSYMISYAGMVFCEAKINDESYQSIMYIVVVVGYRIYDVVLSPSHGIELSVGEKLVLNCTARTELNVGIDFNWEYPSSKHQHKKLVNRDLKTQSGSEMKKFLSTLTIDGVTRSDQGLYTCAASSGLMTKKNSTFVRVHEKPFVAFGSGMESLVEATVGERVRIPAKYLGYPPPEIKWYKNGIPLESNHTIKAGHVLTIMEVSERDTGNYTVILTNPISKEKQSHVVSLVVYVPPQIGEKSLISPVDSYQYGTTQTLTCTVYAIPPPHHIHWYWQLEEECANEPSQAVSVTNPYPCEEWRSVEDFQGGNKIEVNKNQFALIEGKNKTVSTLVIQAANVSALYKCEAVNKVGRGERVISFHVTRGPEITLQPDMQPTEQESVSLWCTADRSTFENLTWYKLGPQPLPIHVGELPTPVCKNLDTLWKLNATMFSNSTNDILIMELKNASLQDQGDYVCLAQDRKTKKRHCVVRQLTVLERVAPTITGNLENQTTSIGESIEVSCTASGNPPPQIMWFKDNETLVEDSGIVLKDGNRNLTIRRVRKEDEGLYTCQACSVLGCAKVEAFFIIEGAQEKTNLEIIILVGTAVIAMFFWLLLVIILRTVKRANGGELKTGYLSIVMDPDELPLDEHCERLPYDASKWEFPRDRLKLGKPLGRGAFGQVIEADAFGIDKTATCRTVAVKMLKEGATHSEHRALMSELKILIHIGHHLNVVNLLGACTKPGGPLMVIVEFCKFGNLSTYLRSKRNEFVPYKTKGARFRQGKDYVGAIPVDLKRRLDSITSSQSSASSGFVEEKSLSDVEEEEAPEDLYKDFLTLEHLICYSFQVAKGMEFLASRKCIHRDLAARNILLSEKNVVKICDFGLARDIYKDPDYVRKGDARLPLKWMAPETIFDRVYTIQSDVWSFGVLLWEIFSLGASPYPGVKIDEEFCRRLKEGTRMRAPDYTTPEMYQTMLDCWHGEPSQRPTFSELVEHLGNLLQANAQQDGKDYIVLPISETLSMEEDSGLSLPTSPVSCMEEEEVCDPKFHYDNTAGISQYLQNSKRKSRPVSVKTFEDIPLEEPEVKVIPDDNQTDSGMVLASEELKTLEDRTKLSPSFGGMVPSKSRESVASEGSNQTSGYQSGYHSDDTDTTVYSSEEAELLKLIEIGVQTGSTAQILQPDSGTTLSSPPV

B1: cyclic peptide L1, synthesized: ClAc-Phe-Val-Val-Val-Ser-Thr-Asp-Pro-Trp-Val-Asn-Gly-Leu-Tyr-Ile-Asp-Cys-Gly (peptide)
peptide: {CH2CO}-FVVVSTDPWVNGLYIDCG-NH2
modifications: thioether N-17
SMILES: CC[C@H](C)[C@@H]1NC(=O)[C@H](Cc2ccc(O)cc2)NC(=O)[C@H](CC(C)C)NC(=O)CNC(=O)[C@H](CC(N)=O)NC(=O)[C@H](C(C)C)NC(=O)[C@H](Cc2c[nH]c3ccccc23)NC(=O)[C@@H]2CCCN2C(=O)[C@H](CC(=O)O)NC(=O)[C@H]([C@@H](C)O)NC(=O)[C@H](CO)NC(=O)[C@H](C(C)C)NC(=O)[C@H](C(C)C)NC(=O)[C@H](C(C)C)NC(=O)[C@H](Cc2ccccc2)NC(=O)CSC[C@@H](C(=O)NCC(N)=O)NC(=O)[C@H](CC(=O)O)NC1=O
notes: Made by Fmoc solid-phase synthesis, cyclised and HPLC purified; this form was used in BLI and in the cell assays
In the case of B1, the “growth inhibition of HUVEC with 10 ng/mL VEGF (BrdU method), IC50” value [1] is reported as 60 nM, the Kd [2] is reported as 94 nM and the koff [2] is reported as 0.002 s⁻¹. The kon [2] was 20000 M⁻¹ s⁻¹.
